# From patent US20150307617A1 (Genentech, published 2015)
# Changes are numbered by the printed parent chain.
# T1: Human OX40 (Sino Biological Inc) (human, UniProt P43489 29-216, limits assumed)
# T1 construct: Bought soluble protein used as SPR analyte; also called huOX40
# T1 sequence: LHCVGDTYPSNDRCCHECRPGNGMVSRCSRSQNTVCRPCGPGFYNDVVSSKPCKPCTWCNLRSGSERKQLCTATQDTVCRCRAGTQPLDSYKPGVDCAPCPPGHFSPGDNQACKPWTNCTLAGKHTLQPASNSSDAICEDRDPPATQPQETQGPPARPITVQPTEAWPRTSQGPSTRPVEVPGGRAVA
# B1: 1A7.gr.NADS (antibody, V domains shown)
# VH: EVQLVQSGAEVKKPGASVKVSCKASGYTFTDSYMSWVRQAPGQGLEWIGDMYPDNADSSYNQKFRERVTITRDTSTSTAYLELSSLRSEDTAVYYCVLAPRWYFSVWGQGTLVTVSS
# VL: DIQMTQSPSSLSASVGDRVTITCRASQDISNYLNWYQQKPGKAPKLLIYYTSRLRSGVPSRFSGSGSGTDFTLTISSLQPEDFATYYCQQGHTLPPTFGQGTKVEIK
# B2: 1A7.gr.DANADA (antibody, V domains shown)
# VH: B1 VH with S32A, S58A
# VL: B1 VL
# B3: 1A7.gr.NGSS (antibody, V domains shown)
# VH: B1 VH with A56G, D57S
# VL: B1 VL
# B4: 1A7.gr.NADA (antibody, V domains shown)
# VH: B1 VH with S58A
# VL: B1 VL
# B5: 1A7.gr.SGDS (antibody, V domains shown)
# VH: B1 VH with N55S, A56G
# VL: B1 VL
# B6: 1A7.gr.DA (antibody, V domains shown)
# VH: B1 VH with S32A, A56G
# VL: B1 VL
# B7: 3C8.gr.1 (antibody, V domains shown)
# VH: EVQLVQSGAEVKKPGASVKVSCKASGYAFTNYLIEWVRQAPGQGLEWIGVINPGSGDTYYSEKFKGRVTITRDTSTSTAYLELSSLRSEDTAVYYCARDRLDYWGQGTLVTVSS
# VL: DIQMTQSPSSLSASVGDRVTITCHASQDISSYIVWYQQKPGKAPKLLIYHGTNLEDGVPSRFSGSGSGTDFTLTISSLQPEDFATYYCVHYAQFPYTFGQGTKVEIK
# notes: human Fc
# B8: 3C8.gr.9 (antibody, V domains shown)
# VH: B7 VH with I70L
# VL: B7 VL with A43S
# notes: human Fc
# B9: 3C8.gr.5.QG (antibody, V domains shown)
# VH: B7 VH with I70L, R72A
# VL: B7 VL with A43S, P44F, L46G, D56Q
# B10: 3C8.gr.6 (antibody, V domains shown)
# VH: B7 VH with R72A
# VL: B7 VL with A43S, P44F, L46G, T69A, F71Y
# notes: human Fc
# B11: 3C8.gr.2 (antibody, V domains shown)
# VH: B7 VH with R72A
# VL: B7 VL
# notes: human Fc
# B12: 3C8.gr.DQ (antibody, V domains shown)
# VH: B7 VH with T58Q, I70L, R72A
# VL: B7 VL with A43S, P44F, L46G
# notes: also called 3C8.gr.5.DQ
# B13: 3C8.gr.7 (antibody, V domains shown)
# VH: B7 VH with I70L, R72A
# VL: B7 VL with A43S, P44F, L46G, T69A, F71Y
# notes: human Fc
# B14: 3C8.gr.10 (antibody, V domains shown)
# VH: B7 VH with I70L
# VL: B7 VL with P44F
# notes: human Fc
# B15: 3C8.gr.8 (antibody, V domains shown)
# VH: B7 VH with I70L
# VL: B7 VL with A43S, P44F, L46G
# notes: human Fc
# B16: 3C8.gr.3 (antibody, V domains shown)
# VH: B7 VH with I70L, R72A
# VL: B7 VL
# notes: human Fc
# B17: 3C8.gr.11 (antibody, V domains shown)
# VH: B7 VH with I70L
# VL: B7 VL with L46G
# notes: human Fc
# B18: 3C8.gr.4 (antibody, V domains shown)
# VH: B7 VH with R72A
# VL: B7 VL with A43S, P44F, L46G
# notes: human Fc
# B19: 3C8.gr.DA (antibody, V domains shown)
# VH: B7 VH with T58A, I70L, R72A
# VL: B7 VL with A43S, P44F, L46G
# notes: also called 3C8.gr.5.DA
# B20: 1A7.gr.3 (antibody, V domains shown)
# VH: B1 VH with A56G, I70L, R72V
# VL: B1 VL
# notes: human Fc
# B21: 1D2.gr.2 (antibody, V domains shown)
# VH: EVQLVESGPGLVKPSETLSLTCTVSGFSLTDYGVLWIRQPPGKGLEWIGMIWSGGTTDYNAAFISRVTISKDTSKNQVSLKLSSVTAADTAVYYCVREEMDYWGQGTLVTVSS
# VL: B1 VL with Y32F, R55H, H92N, P96W
# notes: human Fc
# B22: 1A7.gr.2 (antibody, V domains shown)
# VH: B1 VH with A56G, R72V
# VL: B1 VL
# notes: human Fc (captured by anti-human Fc)
# B23: 1A7.gr.5′ (antibody, V domains shown)
# VH: B1 VH with A56G, I70L, R72V
# VL: B1 VL with A43T, P44V
# notes: human Fc
# B24: 1A7.gr.4 (antibody, V domains shown)
# VH: B1 VH with A56G, R72V
# VL: B1 VL with A43T, P44V
# notes: human Fc
# B25: 1D2.gr.1 (antibody, V domains shown)
# VH: B21 VH with K71V, V78F
# VL: B1 VL with Y32F, R55H, H92N, P96W
# notes: human Fc
# B26: 1D2.gr.3 (antibody, V domains shown)
# VH: B21 VH with I37V, I48L, V67L
# VL: B1 VL with Y32F, R55H, H92N, P96W
# notes: human Fc
# B27: 1A7.gr.6 (antibody, V domains shown)
# VH: B1 VH with A56G, R72V
# VL: B1 VL with A43T, P44V, T69K, F71Y, Y87F
# notes: human Fc
# B28: 1A7.gr.7′ (antibody, V domains shown)
# VH: B1 VH with A56G, I70L, R72V
# VL: B1 VL with A43T, P44V, T69K, F71Y, Y87F
# notes: human Fc
# Target: T1, Human OX40 (Sino Biological Inc)
# Test: SPR (Biacore), antibody captured via anti-human Fc, huOX40 analyte
# Procedure: (§1) The binding kinetics of the anti-OX40 antibodies was measured using surface plasmon resonance (SPR) on a Biacore 3000 instrument (GE Healthcare). Anti-human Fc (GE Healthcare) was immobilized on a CM5 sensor chip via amine-based coupling using manufacturer provided protocol. Anti-OX40 antibody was captured at a level of 300-400 resonance units (RU). Antibody binding was measured to human OX40 (Sino Biological Inc). Two-fold concentration series of huOX40 with a range of either 18.75 to 300 nM or 6.25 to 200 nM were used for the experiments. Sensorgrams for binding of OX40 were recorded using an injection time of 2 minutes with a flow rate of 30 μl/min, at a temperature of 25° C., and with a running buffer of 10 mM HEPES, pH 7.4, 150 mM NaCl, and 0.005% Tween 20. After injection, disassociation of the ligand from the antibody was monitored for 600 seconds in running buffer. The surface was regenerated between binding cycles with a 40 μl injection of 3 M Magnesium Chloride.
# Variants were tested by Biacore as described above to evaluate binding kinetics and in co-stimulation assays to determine biological activity.
Binder,Kd,koff,kon,fold loss of binding affinity (against 1A7.gr.1)
B1,0.442 nM,0.000121 s⁻¹,275000 M⁻¹ s⁻¹,–
B2,0.557 nM,0.000215 s⁻¹,387000 M⁻¹ s⁻¹,–
B3,0.311 nM,0.000108 s⁻¹,349000 M⁻¹ s⁻¹,–
B4,0.355 nM,0.000108 s⁻¹,304000 M⁻¹ s⁻¹,–
B5,0.993 nM,0.000228 s⁻¹,230000 M⁻¹ s⁻¹,2 fold
B6,0.259 nM,8.32e-05 s⁻¹,321000 M⁻¹ s⁻¹,–

# Target: T1, Human OX40 (Sino Biological Inc)
# Test: as above
# Remark: another data set of the same source
# Procedure: as §1
Binder,Kd,koff,kon,binding result
B7,6.49 nM,0.00267 s⁻¹,412000 M⁻¹ s⁻¹,–
B8,4.28 nM,0.00173 s⁻¹,404000 M⁻¹ s⁻¹,–
B9,1.17 nM,0.000534 s⁻¹,457000 M⁻¹ s⁻¹,–
B10,3.08 nM,0.00122 s⁻¹,395000 M⁻¹ s⁻¹,–
B11,5.48 nM,0.00255 s⁻¹,466000 M⁻¹ s⁻¹,–
B12,8.12 nM,0.00309 s⁻¹,381000 M⁻¹ s⁻¹,–
B13,1.41 nM,0.000685 s⁻¹,486000 M⁻¹ s⁻¹,–
B14,2.84 nM,0.00108 s⁻¹,382000 M⁻¹ s⁻¹,–
B15,2.16 nM,0.000709 s⁻¹,329000 M⁻¹ s⁻¹,–
B16,3.94 nM,0.00196 s⁻¹,498000 M⁻¹ s⁻¹,–
B17,2.86 nM,0.000917 s⁻¹,321000 M⁻¹ s⁻¹,–
B18,2.2 nM,0.000923 s⁻¹,420000 M⁻¹ s⁻¹,–
B19,12.9 nM,0.00502 s⁻¹,388000 M⁻¹ s⁻¹,–
B20,0.525 nM,0.000243 s⁻¹,462000 M⁻¹ s⁻¹,–
B21,55.9 nM,0.0178 s⁻¹,319000 M⁻¹ s⁻¹,–
B22,0.524 nM,0.000233 s⁻¹,444000 M⁻¹ s⁻¹,–
B23,1.77 nM,0.000492 s⁻¹,278000 M⁻¹ s⁻¹,–
B24,0.472 nM,0.000163 s⁻¹,345000 M⁻¹ s⁻¹,–
B25,–,–,–,binds
B26,59.5 nM,0.0163 s⁻¹,273000 M⁻¹ s⁻¹,–
B27,0.177 nM,6.93e-05 s⁻¹,391000 M⁻¹ s⁻¹,–
B28,0.36 nM,0.000145 s⁻¹,401000 M⁻¹ s⁻¹,–
